Source: patent US20180148484A1 (Pieris, published 2018)
Numbering of substitutions follows the chain as printed.

B1: negative control, wild-type like lipocalin mutein SEQ ID NO: 4 (other)
chain: QDSTSDLIPAPPLSKVPLQQNFQDNQFHGKWYVVGLAGNAILREDKDPQKMYATIYELKEDKSYNVTSVLFRKKKCDYWIRTFVPGSQPGEFTLGNIKSYPGLTSYLVRVVSTNYNQHAMVFFKKVSQNREYFKITLYGRTKELTSELKENFIRFSKSLGLPENHIVFPVPIDQCIDG
notes: captured by anti-hNGAL antibody in the T-cell assays
B2: lipocalin mutein of SEQ ID NO: 16 (designed binder, not shown: small tags and cut ends)
chain: QDSTSDLIPAPPLSKVPLQQNFQDNQFHGKWYVVGQAGNIKLREDSKMMATIYELKEDKSYDVTGVSFDDKKCTYAIMTFVPGSQPGEFTLGKIKSFPGHTSSLVRVVSTNYNQHAMVFFKFVFQNREEFYITLYGRTKELTSELKENFIRFSKSLGLPENHIVFPVPIDQCIDG
notes: expressed in E. coli with a C-terminal Strep-tag II; also called hNGAL mutein
B3: lipocalin mutein of SEQ ID NO: 18 (designed binder, not shown: small tags and cut ends)
chain: QDSTSDLIPAPPLSKVPLQQNFQDNQFHGKWYVVGQAGNIRLREDKDPHKMMATIYELKEDKSYDVTGVTFDDKKCTYAISTFVPGSQPGEFTLGKIKSFPGHTSSLVRVVSTNYNQHAMVFFKFVFQNREEFYITLYGRTKELTSELKENFIRFSKSLGLPENHIVFPVPIDQCIDG
notes: as for B2
B4: lipocalin mutein of SEQ ID NO: 14 (designed binder, not shown: small tags and cut ends)
chain: B3 chain with H49N, G68A, T70A, A79D, S81W
notes: as for B2
B5: lipocalin mutein of SEQ ID NO: 17 (designed binder, not shown: small tags and cut ends)
chain: B3 chain with R41K, H49V, T77R, A79D, L94F
notes: as for B2
B6: lipocalin mutein of SEQ ID NO: 15 (designed binder, not shown: small tags and cut ends)
chain: B3 chain with R41K, H49N, G68A, T70A, A79D, S81W
notes: as for B2
B7: lipocalin mutein of SEQ ID NO: 19 (designed binder, not shown: small tags and cut ends)
chain: B3 chain with R41K, H49N, F83L, L94F
notes: as for B2
B8: lipocalin mutein of SEQ ID NO: 13 (designed binder, not shown: small tags and cut ends)
chain: B3 chain with H49I, G68M, T70K, T77M, A79D, S81W
notes: as for B2
B9: lipocalin mutein of SEQ ID NO: 12 (designed binder, not shown: small tags and cut ends)
chain: B3 chain with R41K, H49N, D65N
notes: as for B2
B10: lipocalin mutein of SEQ ID NO: 20 (designed binder, not shown: small tags and cut ends)
chain: B3 chain with H49S, G68A, T77N
notes: as for B2

Experiments:
[1] = target: T1, human CD137 expressed on cells (human, UniProt Q07011 24-255); assay: FACS on CHO cells stably transfected with human CD137
T1 construct: whole, on cells; also called CHO-huCD137; CHO::hCD137
T1 sequence (Q07011 24-255): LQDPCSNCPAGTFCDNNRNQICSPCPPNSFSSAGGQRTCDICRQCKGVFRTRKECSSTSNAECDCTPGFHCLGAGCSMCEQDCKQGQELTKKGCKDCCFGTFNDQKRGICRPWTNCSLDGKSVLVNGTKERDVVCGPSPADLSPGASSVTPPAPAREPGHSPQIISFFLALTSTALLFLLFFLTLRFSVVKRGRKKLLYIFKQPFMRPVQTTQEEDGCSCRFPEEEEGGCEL
Protocol: (§1) To perform the experiment, CD137-positive and negative Flp-In CHO cells were incubated with lipocalin muteins, and bound mutein was labeled using anti-lipocalin primary antibodies and fluorescently labeled secondary antibodies, which were detected by FACS analysis as described in the following.
(§2) 1×10⁵ cells per well were pre-incubated for 1 h in ice-cold PBS containing 5% fetal calf serum (PBS-FCS). Subsequently, a dilution series of lipocalin muteins and negative controls typically ranging from 10 μM to 1 nM was added to the cells and incubation was continued on ice for 1 h. Cells were washed twice in ice-cold PBS using centrifugation at 300 g and then incubated with a rabbit anti-lipocalin primary antibody (Pieris, (polyclonal rabbit anti-hNGAL and rabbit anti-hTLC; Pieris) for 30 min on ice. Cells were washed twice in ice-cold PBS, re-suspended in PBS-FCS and incubated 30 min on ice with a secondary anti-rabbit antibody labelled with the fluorescent dye Alexa488 (Life Technologies). Cells were subsequently washed and analyzed using a Guava easyCyte HT Flow cytometer. Typically, a gate was set to exclude non-viable cells and 5.000 events were recorded. Numerical results are expressed as the geometric mean of the fluorescence intensity.

[2] = target: T2, human CD137-Fc fusion protein (Fc-fusion of the full extracellular domain of human CD137, R&D Systems 838-4B) (human, UniProt Q07011 24-186); assay: SPR, huCD137-Fc captured via anti-human IgG-Fc antibody
T2 construct: extracellular domain; Bought protein; also called huCD137-Fc; KD huCD137; not shown: Fc of human IgG (captured by an anti-human IgG-Fc antibody)
Description: FIG. 1: provides typical measurements of on-rate and off-rate by surface plasmon resonance (SPR) for the interaction of various representative lipocalin muteins (SEQ ID NOs indicated in the graph) with human CD137 (Fc-fusion) as the target. The targets were immobilized via an anti-human IgG-Fc antibody, which was in turn immobilized on a sensor chip using standard amine coupling chemistry. The lipocalin muteins were employed as the soluble analyte which was flowed at different concentrations across the chip surface. […] The dissociation constants resulting from a fit (1:1 binding model) of the depicted data for all SEQ ID NOs are provided in Table 1.
Prior to the protein measurements three regeneration cycles were performed for conditioning purposes. Regeneration of the derivatized chip surface was achieved by applying 3M MgCl₂ for 60 s followed by 10 mM glycine, pH 1.7 for 180 s. Anti-human IgG-Fc antibody was utilized to immobilize huCD137-Fc in a subsequent step and taken from the human antibody capture kit (GE Healthcare, BR-1008-39). […]
HuCD137-Fc at a concentration of 0.5 μg/mL was captured on this surface for 180 s at a flow rate of 10 μL/min in HBS-EP+ buffer. […] Data were evaluated with Biacore T200 Evaluation software (V 2.0). […]

[3] = target: T2, human CD137-Fc fusion protein …; assay: SPR (Biacore T200, 37 C), huCD137-Fc captured via anti-human IgG-Fc antibody, mutein as analyte, 1:1 model
Protocol: Prior to the protein measurements three regeneration cycles were performed for conditioning purposes. Regeneration of the derivatized chip surface was achieved by applying 3M MgCl₂ for 60 s followed by 10 mM glycine, pH 1.7 for 180 s. Anti-human IgG-Fc antibody was utilized to immobilize huCD137-Fc in a subsequent step and taken from the human antibody capture kit (GE Healthcare, BR-1008-39). It was immobilized on a CM5 sensor chip using standard amine coupling chemistry and the immobilization buffer included in the kit (10 mM sodium acetate pH 5.0), resulting in a ligand density of about 13000 resonance units (RU). The reference channel was treated accordingly.
HuCD137-Fc at a concentration of 0.5 μg/mL was captured on this surface for 180 s at a flow rate of 10 μL/min in HBS-EP+ buffer. No target protein was applied to the reference channel. Subsequently, the lipocalin muteins were applied in an appropriate dilution series in HBS-EP+ buffer at a flow rate of 30 μL/min. Regeneration of the derivatized chip surface was achieved as described above. Data were evaluated with Biacore T200 Evaluation software (V 2.0). Double referencing was used and the 1:1 Binding model was used to fit the raw data.

[4] = target: T1, human CD137 expressed on cells; assay: FACS on CHO cells stably transfected with human CD137; anti-lipocalin primary and Alexa488 secondary antibody
Protocol: as §1, §2

[5] = target: T1, human CD137 expressed on cells; assay: cell-based or functional assay

| Binder | Kd [3] [nM] | EC50 [4] [nM] | also measured |
| --- | --- | --- | --- |
| B1 | – | – | binding result [1]: no binding; binding result [2]: no binding |
| B2 | 30 | – | – |
| B3 | 77 | 13.7 | – |
| B4 | 9 | 4.5 | – |
| B5 | 50 | 17.9 | – |
| B6 | 23 | 7.8 | – |
| B7 | 98 | – | – |
| B8 | 2 | 4.3 | IFN-γ production, coated mutein, anti-CD3 and anti-CD28 stimulation [5]: ≤ 2.5 fold over negative control; IFN-γ production, coated mutein, anti-CD3 stimulation only [5]: ~2.5 fold over negative control; IL-2 production, coated mutein, anti-CD3 and anti-CD28 stimulation [5]: ~6 fold over negative control; maximum response at 6.25 µg/mL coating concentration (readout not named, probably IL-2), anti-CD3 stimulation only [5]: 15 fold over negative control; proliferation rate (BrdU), coated mutein, anti-CD3 and anti-CD28 stimulation [5]: ≤ 14 fold over negative control; proliferation rate (BrdU), coated mutein, anti-CD3 stimulation only [5]: ≤ 4 fold over negative control |
| B9 | 36 | – | – |
| B10 | 138 | 18 | – |
